Experimental data reported in the supplement of paper PMC10126150.
± gives the standard deviation of the averaged measurements.

Tested on: ATP
Test: switch fluorescence ratio, 500 uM ATP over buffer (Cy3 cluster intensity, sum of 5 cycles each) (fold (ratio)); higher = stronger signal-on switching upon ATP binding; sequences stand for … in TCGTCGGCAGCGTCAGATGTGTATAAGAGACAGTTTTTTTTTTTTTTTTTTTTTTTTT…TC
Conditions: aptamer strand: ATP DNA aptamer (quencher-CACCTGGGGGAGTATTGCGGAGGAAGG + anchor), 100 nM annealed; ATP concentration: 500 uM
Outline: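 Cy3-labelled switching-strand clusters on a modified Illumina MiSeq flow-cell were annealed to 100 nM quencher-labelled ATP aptamer, imaged in selection buffer, then imaged after 15 min with 500 uM ATP at 22 °C. Five buffer/ATP cycles ran, with NaOH stripping and re-annealing between them. The fluorescence ratio is summed target-cycle over summed buffer-cycle Cy3 intensity per cluster, averaged per switch-domain sequence. Clusters outside 100-1000 RFU were excluded.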
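Note: ATP exposure 15 min at 22 °C before imaging.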

| Sequence | switch fluorescence ratio |
| --- | --- |
| AGTCTAGATA | 1.0302 ± 0.00084 |
| AAATTGTCAA | 1.01 ± 0.05 |
| CGGGGATAAG | 0.981 ± 0.011 |
| TACGCTTATA | 1.19 ± 0.042 |
| GGCGTCGAGG | 0.997 ± 0.018 |
| ATAAAAAGCA | 0.995 ± 0.04 |
| CAATTTGGGG | 0.994 ± 0.02 |
| TCGGGTATAT | 1 ± 0.044 |
| ACTTGGTTGT | 0.992 ± 0.013 |
| ATCACGGGAT | 1.015 ± 0.0039 |
| CGGAAGTTCG | 0.9774 ± 0.0048 |
| CGTGTTGAGG | 0.991 ± 0.023 |
| TAATCGGCTG | 0.991 ± 0.069 |
| ATCAACGGTG | 1.01 ± 0.044 |
| GACCTATGGA | 0.997 ± 0.0037 |
| AGGTCCGCGA | 2.62 ± 0.17 |
| GCGATGTCT | 0.9976 ± 0.0065 |
| TATGAAGTCG | 0.9937 ± 0.0098 |
| GCTATCCCTG | 1.05 ± 0.018 |
| TGATGGCGGT | 1.04 ± 0.065 |
| ATAAAGGTCG | 1.06 ± 0.1 |
| TTAAGGAAAA | 1.04 ± 0.071 |
| TTATAAGTAG | 1.01 ± 0.02 |
| TTGATACCAG | 0.982 ± 0.013 |
| TACTGCAATT | 1.35 ± 0.22 |

| Sequence | switch fluorescence ratio |
| --- | --- |
| GGAAAGGTCG | 1.04 ± 0.039 |
| AAAGGTAGGG | 0.993 ± 0.032 |
| TTATATGGGT | 0.999 ± 0.013 |
| AAACGTTGCT | 1.19 ± 0.015 |
| GTTATATAAC | 1.03 ± 0.058 |
| ATATGAAGGT | 0.9893 ± 0.0047 |
| TTCATTGGGG | 0.99 ± 0.018 |
| GTTGGATGTA | 1.011 ± 0.008 |
| GGTTATGAGT | 0.99 ± 0.017 |
| CGGTATCTGA | 0.9888 ± 0.006 |
| AGAAGAGGGG | 0.987 ± 0.044 |
| CTGATGGTAG | 1.01 ± 0.015 |
| CAGGGCAGCC | 1.01 ± 0.03 |
| CGATCGGTAC | 3.3 ± 0.38 |
| AGGGTTGAAC | 1 ± 0.023 |
| GACTCTGAGT | 1.01 ± 0.017 |
| TGGGGCAACG | 0.979 ± 0.034 |
| GTTATAAGTT | 1.06 ± 0.027 |
| TCTGAAAATG | 0.998 ± 0.012 |
| ACACAGTGCT | 1 ± 0.011 |
| CGTATCAAAA | 1.02 ± 0.019 |
| TTGGCGGCTA | 0.982 ± 0.024 |
| GGGGATTGAT | 1.02 ± 0.039 |
| TTTATGGGGT | 1.01 ± 0.028 |
| TGGTCGTGTG | 1 ± 0.027 |

| Sequence | switch fluorescence ratio |
| --- | --- |
| TGGGGGGGG | 1.01 ± 0.05 |
| AGGCTTAATC | 0.9903 ± 0.0069 |
| CGTGCCAGCT | 0.9518 ± 0.00082 |
| CGTGCGGGGA | 1.02 ± 0.032 |
| TTGTCACGG | 0.986 ± 0.035 |
| TTTCGATTAC | 1.07 ± 0.018 |
| AGCTGATAGG | 0.991 ± 0.032 |
| ATTAATCTTG | 1.03 ± 0.046 |
| CCATGTTGCG | 0.982 ± 0.012 |
| GGCTGGTTTC | 0.9969 ± 0.0089 |
| GATCTTAACA | 1.003 ± 0.0089 |
| CGTTTTGGTG | 0.9914 ± 0.0052 |
| TATTTGGGGC | 1.01 ± 0.058 |
| GAAAGGGGCT | 0.993 ± 0.031 |
| AGAGGTACAC | 1 ± 0.021 |
| CCACAGGGCA | 1.34 ± 0.059 |
| CTTGTGTGGT | 1.02 ± 0.014 |
| GCCAATTGCA | 0.97965 ± 0.00047 |
| AAGGAAGCGT | 0.9883 ± 0.0045 |
| GGGGCTATAT | 1.39 ± 0.62 |
| CTTATATCTT | 0.993 ± 0.025 |
| GTTTTTTATA | 0.995 ± 0.011 |
| TATGGGCTGG | 0.979 ± 0.049 |
| GAGCCTCGGA | 1.29 ± 0.44 |
| AGGGGGTTGG | 1 ± 0.032 |

| Sequence | switch fluorescence ratio |
| --- | --- |
| TGAGACAATA | 1.1 ± 0.011 |
| GTTAGCGCAT | 1.04 ± 0.025 |
| ACGCTAATGT | 1.35 ± 0.23 |
| TTTTAGGTAT | 1.02 ± 0.038 |
| TGGTTGCCTG | 0.993 ± 0.056 |
| CGTTTTTGTA | 0.99 ± 0.015 |
| GGGCTAATAA | 1.02 ± 0.039 |
| TTTCTCGTTC | 1.15 ± 0.21 |
| ATACAGGTCT | 1.03 ± 0.011 |
| GACCTTTCTG | 0.997 ± 0.025 |
| TTGAGAGCAG | 1.24 ± 0.11 |
| CGTTTGCCGT | 0.985 ± 0.024 |
| CGTGTTGGGG | 0.971 ± 0.039 |
| GAGTGTGCGC | 1.02 ± 0.03 |
| CTGTTTGGGG | 1.004 ± 0.0028 |
| ACTAGGCCGA | 1.01 ± 0.044 |
| TTTTATTCTT | 0.987 ± 0.016 |
| CTTTAAGGGG | 1.01 ± 0.03 |
| AAGGTGGATG | 0.992 ± 0.021 |
| GTGACAGGTG | 1.47 ± 0.053 |
| CAATTCGTTA | 1.01 ± 0.0035 |
| GGATCATGGT | 1.034 ± 0.007 |
| AGGGGAGTTG | 0.995 ± 0.027 |
| TATGCTGGTT | 1.05 ± 0.061 |
| TTGCAGTAGC | 1.05 ± 0.033 |

| Sequence | switch fluorescence ratio |
| --- | --- |
| CTGGGGGATG | 0.9863 ± 0.0027 |
| AAGGGACAGC | 1.03 ± 0.021 |
| AGACAAGTGG | 0.957 ± 0.026 |
| TCCGAATTGG | 1.05 ± 0.022 |
| TAGAGTTCTC | 1.01 ± 0.013 |
| TCTTGGGACG | 0.979 ± 0.042 |
| TATAAGACTT | 1.01 ± 0.035 |
| GTTTTTGGTC | 0.974 ± 0.02 |
| TGGTTTTGGT | 0.987 ± 0.025 |
| GAGTGTTCTT | 0.977 ± 0.01 |
| GCTGTTTACG | 1.03 ± 0.031 |
| GGGGAGTGCT | 0.9872 ± 0.004 |
| CGTCTGGGAT | 1.01 ± 0.037 |
| AAGGTGGGTG | 0.999 ± 0.029 |
| GGTCTGCAGC | 1.003 ± 0.0062 |
| GGGTAAGGTG | 1.3 ± 0.091 |
| ATGGGATTTA | 1.04 ± 0.024 |
| TAATCCAGAA | 1.01 ± 0.082 |
| GGTTTAATGG | 1.01 ± 0.018 |
| CGCGAAAGCC | 1.002 ± 0.01 |
| GAAGGAACGT | 0.981 ± 0.043 |
| GGGTATAACG | 0.974 ± 0.035 |
| GGGGCAATGT | 1.22 ± 0.05 |
| AGGTACGAGG | 1.006 ± 0.003 |
| TATTTGGCTT | 1 ± 0.025 |

| Sequence | switch fluorescence ratio |
| --- | --- |
| AAGTATATGA | 1.004 ± 0.0083 |
| TTGGGTTTTT | 1.04 ± 0.1 |
| TCAATGAAGC | 0.988 ± 0.012 |
| TGAATTATAG | 1 ± 0.015 |
| TAACAATTTC | 1.01 ± 0.02 |
| ATGTTGGGGA | 0.996 ± 0.019 |
| ATATTTAAGG | 0.995 ± 0.029 |
| TCATCAATAT | 1.09 ± 0.067 |
| TCCTTGTCTT | 1.01 ± 0.016 |
| GACAGAGGGA | 1.02 ± 0.031 |
| GTCCGGATGG | 1.02 ± 0.011 |
| GAGAGGGGGG | 1 ± 0.025 |
| GAGCGATGGT | 1.12 ± 0.021 |
| CGTCGGGGCA | 0.964 ± 0.074 |
| TATCTAAAAC | 1.001 ± 0.0032 |
| TTTTGGGTGT | 1.02 ± 0.059 |
| TATAGAGGGG | 1.07 ± 0.15 |
| TGTGGCGGTT | 1.015 ± 0.0077 |
| GGGGCGGACT | 0.952 ± 0.04 |
| TGGTAGTGGG | 0.98 ± 0.026 |
| AAAGGTCAGG | 1 ± 0.028 |
| AGACATGGGT | 1.02 ± 0.033 |
| CGGTAGTCGA | 1.02 ± 0.052 |
| GGTGCCGTGC | 0.995 ± 0.034 |
| CAGTTAGACA | 0.99 ± 0.081 |

| Sequence | switch fluorescence ratio |
| --- | --- |
| CCGGCGGTTT | 1.04 ± 0.029 |
| TCAGGGCGAA | 0.995 ± 0.016 |
| GAGGGATGTA | 1.01 ± 0.022 |
| AGATTCATCA | 0.9931 ± 0.0055 |
| CTGAATGTAG | 1 ± 0.011 |
| TTTGGTTACA | 1.01 ± 0.04 |
| ATTTTTGAGC | 1.04 ± 0.048 |
| CAATGTCCCG | 0.9985 ± 0.0041 |
| TTGGATTCCC | 0.977 ± 0.064 |
| GAAATATAAT | 1.012 ± 0.0066 |
| AGGGTGTCGA | 1.02 ± 0.012 |
| TGAGTCCATT | 0.985 ± 0.018 |
| ATATTGACAC | 1.08 ± 0.012 |
| TGGTTAAGAT | 0.999 ± 0.038 |
| TCAGACTACT | 1.02 ± 0.021 |
| TATTGGCTTT | 0.989 ± 0.014 |
| TCTGTTAAT | 1.11 ± 0.18 |
| AGGGCGGCTG | 0.985 ± 0.024 |
| AAAAAGTATG | 1 ± 0.026 |
| AGAAATTTTT | 0.998 ± 0.016 |
| GGTAGTAGGC | 1.014 ± 0.0019 |
| CAGGTAAGGA | 0.969 ± 0.01 |
| ACTATTTCGA | 1.01 ± 0.03 |
| ACGGCCGGTC | 0.9773 ± 0.0026 |
| TCGAGAATGG | 0.952 ± 0.017 |

| Sequence | switch fluorescence ratio |
| --- | --- |
| GTGGTACATA | 0.981 ± 0.022 |
| AAAAGCTTTA | 0.983 ± 0.018 |
| TTCGCGCTTT | 1 ± 0.036 |
| TTTGGATTCC | 0.998 ± 0.034 |
| TTATTTGTGT | 0.987 ± 0.042 |
| TTAGTAGTGT | 0.973 ± 0.0063 |
| AAAACGGTTG | 1 ± 0.019 |
| CGAAGTTTTT | 0.998 ± 0.004 |
| AAGGTGGGTA | 0.99 ± 0.031 |
| TAGACTGGTT | 0.992 ± 0.018 |
| GTCGGTACTT | 0.996 ± 0.012 |
| GGGTTTCGAA | 0.9702 ± 0.0018 |
| TTCTAATGGT | 1.01 ± 0.073 |
| AAGTCCGGGA | 0.998 ± 0.035 |
| TTTTGTGGTA | 1.03 ± 0.013 |
| TTTTTCGATT | 0.982 ± 0.026 |
| GGGGGAGAGA | 1.03 ± 0.064 |
| CGGGAGCGGA | 0.995 ± 0.018 |
| TTGGCTGCGG | 0.95 ± 0.021 |
| GTGTTGCCCG | 1.07 ± 0.038 |
| TGTTTGTGCT | 0.983 ± 0.027 |
| CCAGGTTTGC | 1.08 ± 0.067 |
| GGTTAAGGAT | 0.9884 ± 0.0023 |
| ATCAACGTTA | 1.07 ± 0.031 |
| TATAAAACAC | 1.02 ± 0.013 |
